How the values were obtained:
Pex5p^2D cells = assay: Fluorescence microscopy, peroxisomal import of GFP-tagged proteins in Pex5p^2D-expressing cells; type: cell-based, S. cerevisiae; design: key to import phenotype category: showed a reduced peroxisomal import and constitute category 1; category 2 characterized by no peroxisomal import; without a noticeable effect on import in Pex5p^2D cells (category 3); conditions: GFP-tagged protein, Pex3p-mCherry marker, SD medium, 2% glucose; for import phenotype category: Pex5p^2D-expressing cells, assessed manually
Description: Query strains were constructed on the basis of an automated mating compatible strain. The query strains contained a peroxisomal marker (Pex3p-mCherry::HIS), a deletion of PEX5 (pex5Δ::NAT) and a plasmid expressing WT or mutant PEX5 (PEX5^WT, PEX5^2D or PEX5^2A). Using an automated mating method ([Cohen and Schuldiner 2011]; [Tong and Boone 2006]), the query strains were crossed with a NOP1pr-N′-GFP-peroxi library ([Dahan et al. 2017]). The NOP1pr-N′-GFP-peroxisomal library is a collection of ∼90 strains containing all the known peroxisomal proteins together with potential peroxisomal proteins and controls, genomically tagged with GFP at their N-terminus and expressed under the generic constitutive SpNOP1 promoter. To perform the manipulations in high-density format we used a RoToR bench top colony arrayer (Singer Instruments). In short: mating was performed on rich medium plates, and selection for diploid cells was performed on SD(MSG)-HIS-URA plates containing Geneticin (200 μg ml^−1) and Nourseothricin (200 μg ml^−1). Sporulation was induced by transferring cells to nitrogen starvation media plates for 7 days. Haploid cells containing the desired mutations were selected by transferring cells to SD-URA-HIS-LYS-ARG-LEU plates containing Geneticin and Nourseothricin (same concentrations as above), alongside the toxic amino acid derivatives Canavanine and Thialysine (Sigma-Aldrich) to select against remaining diploids and select for spores with an α mating type. A similar method was used to generate control, pex5Δ, and pex8Δ strains expressing GFP-Mdh3p (Supplementary Figure 4D), in which the query strain contained a peroxisomal marker (Pex3p-mCherry::NAT) and URA3::GFP-Mdh3p. This query strain was crossed with three strains from the mini peroxisomal deletion library ([Gabay-Maskit et al. 2020]): a control (no deletion), pex5Δ, and pex8Δ strain, all of which contain KAN (Geneticin) resistance.
The yeast collections were visualized using an automated microscopy setup as described previously ([Breker et al. 2013]). In short: cells were transferred from agar plates into 384-well polystyrene plates (Greiner) for growth in liquid media using the RoToR arrayer robot. Liquid cultures were grown in a LiCONiC incubator, overnight at 30 °C in SD-URA-HIS medium. A JANUS liquid handler (PerkinElmer) connected to the incubator was used to dilute the strains to an OD600 of ∼0.2 into plates containing SD medium (6.7 g l^−1 yeast nitrogen base and 2% glucose) supplemented with complete amino acids. Plates were incubated at 30 °C for 4 h. The cultures in the plates were then transferred by the liquid handler into glass-bottom 384-well microscope plates (Matrical Bioscience) coated with Concanavalin A (Sigma-Aldrich). After 20 min, cells were washed three times with SD-Riboflavin complete medium to remove non-adherent cells and to obtain a cell monolayer. The plates were then transferred to the ScanR automated inverted fluorescent microscope system (Olympus) using a robotic swap arm (Hamilton). Images of cells in the 384-well plates were recorded in the same liquid as the washing step at 24 °C using a 60× air lens (NA 0.9) and with an ORCA-ER charge-coupled device camera (Hamamatsu). Images were acquired in two channels: GFP (excitation filter 490/20 nm, emission filter 535/50 nm) and mCherry (excitation filter 572/35 nm, emission filter 632/60 nm). All images were taken at a single focal plane. The same protocol was used to visualize fluorescence signals in GFP-Mdh3p-expressing control, pex5Δ, and pex8Δ strains (Supplementary Figure 4D).

[1] = tested on: GFP-SKL import in pex5Δ yeast cells; assay: Fluorescence microscopy, import of GFP-SKL in cells expressing Pex5p variants; type: cell-based, S. cerevisiae; conditions: pex5Δ cells expressing plasmid-encoded Pex5p variant and GFP-SKL; grown in oleate
Procedure: Cells expressing distinct Pex5p variants (wildtype, Pex5p^2A or Pex5p^2D) and GFP-SKL were grown overnight in 50 ml YNO medium supplemented with 0.1% (w/v) glucose to an OD600 of 1–1.5. Aliquots of 5.4 ml were taken and formaldehyde was added to a final concentration of 3.7% (v/v). Samples were incubated for 10 min at RT with slight agitation. Cells were collected by centrifugation (5 min at 2000 g), resuspended in 1 ml of 0.1 M potassium phosphate buffer (pH 6.8) containing 3.7% (v/v) formaldehyde and incubated for 1 h at RT with slight agitation. Following centrifugation (30 s at 16,000 g), cells were resuspended in 1 ml of 0.1 M potassium phosphate buffer (pH 6.8) containing 10 mM ethanolamine and incubated for further 10 min at RT. Subsequently, cells were washed twice with phosphate-buffered saline (PBS) and resuspended in 10–20 µl of PBS containing 0.1% (v/v) Triton X-100. Fixed cells were analyzed within 48 h after preparation.
Fluorescence microscopy was performed using a Zeiss Axio Observer.Z1 microscope equipped with an alpha Plan-Aprochromat 100× objective and an AxioCam MR R3. GFP signal was visualized with a 38 HE filterset from Zeiss. Images were processed using Adobe Photoshop CS5 (version 12.0.4 ×64; Adobe Systems Incorporated). To document the structural integrity of cells, bright field images were acquired, adjusted in a way that only the cell boundaries were visible and subsequently added into the blue channel in Photoshop as reported before ([Motley and Hettema 2007]).

For “Pex8p: essential component of the import machinery for peroxisomal matrix proteins”, which import phenotype category (Pex5p^2D cells) is on record?
The import phenotype category was “category 1”.

B1: Pnc1p: nicotinamidase, imported by piggy-backing on Gpd1p (protein, UniProt P53184 1-216, looked up)
Nicotinamidase: MKTLIVVDMQNDFISPLGSLTVPKGEELINPISDLMQDADRDWHRIVVTRDWHPSRHISFAKNHKDKEPYSTYTYHSPRPGDDSTQEGILWPVHCVKNTWGSQLVDQIMDQVVTKHIKIVDKGFLTDREYYSAFHDIWNFHKTDMNKYLEKHHTDEVYIVGVALEYCVKATAISAAELGYKTTVLLDYTRPISDDPEVINKVKEELKAHNINVVDK
For B1, which “subcellular distribution / peroxisomal import” value (Pex5p^2D cells; Pex5p^2D cells) is on record?
The value was “no differences in localization”.

B2: Str3p: peroxisomal cystathionine beta-lyase (protein, UniProt P53101 1-465, looked up)
Cystathionine beta-lyase: MPIKRLDTVVVNTGSQNDQHSASVPPVYLSTTFKVDLNNEDAQNYDYSRSGNPTRSVLQHQIGKLYRVPQENVLAVSSGMTALDVILRGLVLLNGTDNHTPTIIAGDDLYGGTQRLLNFFKQQSHAVSVHVDTSDFEKFKTVFQSLDKVDCVLLESPTNPLCKVVDIPRILRFVKCISPDTTVVVDNTMMSGLNCNPLQLNPGCDVVYESATKYLNGHHDLMGGVIISKTPEIASKLYFVINSTGAGLSPMDSWLLVRGLKTLGVRLYQQQRNAMILAHWLENSCGFKPTRTNKATKTRFVGLRSNPDFKLHKSFNNGPGAVLSFETGSFEHSKRLVSSKKLSIWAVTVSFGCVNSLLSMPCKMSHASIDPELRKERDFPEDLVRLCCGIENIVDLKKDLLAAMVDADIIEVRENGKYLFNKLNKNLAVNTTIDDLHKPLSIYEEFYNQDLIRKDSELNIKSSKL
How did the import phenotype category (Pex5p^2D cells) turn out when B2 was run?
The import phenotype category was “category 3”.

B3: Idp3p (protein, UniProt P53982 1-420, looked up)
Isocitrate dehydrogenase …: MSKIKVVHPIVEMDGDEQTRVIWKLIKEKLILPYLDVDLKYYDLSIQERDRTNDQVTKDSSYATLKYGVAVKCATITPDEARMKEFNLKEMWKSPNGTIRNILGGTVFREPIIIPKIPRLVPHWEKPIIIGRHAFGDQYRATDIKIKKAGKLRLQFSSDDGKENIDLKVYEFPKSGGIAMAMFNTNDSIKGFAKASFELALKRKLPLFFTTKNTILKNYDNQFKQIFDNLFDKEYKEKFQALKITYEHRLIDDMVAQMLKSKGGFIIAMKNYDGDVQSDIVAQGFGSLGLMTSILITPDGKTFESEAAHGTVTRHFRKHQRGEETSTNSIASIFAWTRAIIQRGKLDNTDDVIKFGNLLEKATLDTVQVGGKMTKDLALMLGKTNRSSYVTTEEFIDEVAKRLQNMMLSSNEDKKGMCKL
For B3, which import phenotype category (Pex5p^2D cells) is on record?
Its import phenotype category is “category 2”.

B4: Mls1p (protein, UniProt P30952 1-554, looked up)
Malate synthase 1: MVKVSLDNVKLLVDVDKEPFFKPSSTTVGDILTKDALEFIVLLHRTFNNKRKQLLENRQVVQKKLDSGSYHLDFLPETANIRNDPTWQGPILAPGLINRSTEITGPPLRNMLINALNAPVNTYMTDFEDSASPTWNNMVYGQVNLYDAIRNQIDFDTPRKSYKLNGNVANLPTIIVRPRGWHMVEKHLYVDDEPISASIFDFGLYFYHNAKELIKLGKGPYFYLPKMEHHLEAKLWNDVFCVAQDYIGIPRGTIRATVLIETLPAAFQMEEIIYQLRQHSSGLNCGRWDYIFSTIKRLRNDPNHILPNRNQVTMTSPFMDAYVKRLINTCHRRGVHAMGGMAAQIPIKDDPAANEKAMTKVRNDKIRELTNGHDGSWVAHPALAPICNEVFINMGTPNQIYFIPENVVTAANLLETKIPNGEITTEGIVQNLDIGLQYMEAWLRGSGCVPINNLMEDAATAEVSRCQLYQWVKHGVTLKDTGEKVTPELTEKILKEQVERLSKASPLGDKNKFALAAKYFLPEIRGEKFSEFLTTLLYDEIVSTKATPTDLSKL
With B4 as the molecule, how does the import phenotype category (Pex5p^2D cells) read?
The import phenotype category was “category 2”.

B5: Pex5p^S507D (protein, UniProt P35056 1-612, looked up, variant S507D)
Peroxisomal targeting signal …: MDVGSCSVGNNPLAQLHKHTQQNKSLQFNQKNNGRLNESPLQGTNKPGISEAFISNVNAISQENMANMQRFINGEPLIDDKRRMEIGPSSGRLPPFSNVHSLQTSANPTQIKGVNDISHWSQEFQGSNSIQNRNADTGNSEKAWQRGSTTASSRFQYPNTMMNNYAYASMNSLSGSRLQSPAFMNQQQSGRSKEGVNEQEQQPWTDQFEKLEKEVSENLDINDEIEKEENVSEVEQNKPETVEKEEGVYGDQYQSDFQEVWDSIHKDAEEVLPSELVNDDLNLGEDYLKYLGGRVNGNIEYAFQSNNEYFNNPNAYKIGCLLMENGAKLSEAALAFEAAVKEKPDHVDAWLRLGLVQTQNEKELNGISALEECLKLDPKNLEAMKTLAISYINEGYDMSAFTMLDKWAETKYPEIWSRIKQQDDKFQKEKGFTHIDMNAHITKQFLQLANNLSTIDPEIQLCLGLLFYTKDDFDKTIDCFESALRVNPNDELMWNRLGASLANSNRDEEAIQAYHRALQLKPSFVRARYNLAVSSMNIGCFKEAAGYLLSVLSMHEVNTNNKKGDVGSLLNTYNDTVIETLKRVFIAMNRDDLLQEVKPGMDLKRFKGEFSF
Which “subcellular distribution of GFP-SKL” value [1] does the source give for B5 here?
The value was “wildtype-like distribution of GFP-SKL”.

B6: Pex5p^S523D (protein, UniProt P35056 1-612, looked up, variant S523D)
Peroxisomal targeting signal …: MDVGSCSVGNNPLAQLHKHTQQNKSLQFNQKNNGRLNESPLQGTNKPGISEAFISNVNAISQENMANMQRFINGEPLIDDKRRMEIGPSSGRLPPFSNVHSLQTSANPTQIKGVNDISHWSQEFQGSNSIQNRNADTGNSEKAWQRGSTTASSRFQYPNTMMNNYAYASMNSLSGSRLQSPAFMNQQQSGRSKEGVNEQEQQPWTDQFEKLEKEVSENLDINDEIEKEENVSEVEQNKPETVEKEEGVYGDQYQSDFQEVWDSIHKDAEEVLPSELVNDDLNLGEDYLKYLGGRVNGNIEYAFQSNNEYFNNPNAYKIGCLLMENGAKLSEAALAFEAAVKEKPDHVDAWLRLGLVQTQNEKELNGISALEECLKLDPKNLEAMKTLAISYINEGYDMSAFTMLDKWAETKYPEIWSRIKQQDDKFQKEKGFTHIDMNAHITKQFLQLANNLSTIDPEIQLCLGLLFYTKDDFDKTIDCFESALRVNPNDELMWNRLGASLANSNRSEEAIQAYHRALQLKPDFVRARYNLAVSSMNIGCFKEAAGYLLSVLSMHEVNTNNKKGDVGSLLNTYNDTVIETLKRVFIAMNRDDLLQEVKPGMDLKRFKGEFSF
B6 was tested. Which “subcellular distribution of GFP-SKL” value [1] did it give?
Its value is “wildtype-like distribution of GFP-SKL”.

Reference: article PMC9929924, “Phosphorylation of the receptor protein Pex5p modulates import of proteins into peroxisomes” (Biological Chemistry, 2022)
